Holding throughout (type): binding, human
Experiment [1] has as its target full-length SNX27. The experiment in a line: nHU-MS, recombinant full-length SNX27 bait, total Jurkat extracts. Particulars: apparent, Fig. 4D, n = 6. Here is the method:
(§1) The empty His6-AviTag-MBP-TEV vector was used to produce biotinylated MBP for control experiments. Proteins were coexpressed with BirA biotin ligase (PET21a-BirA, Addgene, no. 20857) in Escherichia coli BL21(DE3) cells. At isopropyl-β-D-thiogalactopyranoside (IPTG) induction (1 mM IPTG at 18°C overnight), 50 μM biotin was added to the media. Harvested cells were lysed in a buffer containing 50 mM tris (pH 7.5), 150 to 300 mM NaCl, 50 μM biotin, 2 mM β-mercaptoethanol, cOmplete EDTA-free protease inhibitor cocktail (Roche, Basel, Switzerland), 1% Triton X-100, and trace amount of deoxyribonuclease, ribonuclease, and lysozyme. Lysates were frozen at −20°C before further purification steps. Lysates were sonicated and centrifuged for clarification. Expressed proteins were captured on in-house prepacked Ni-IDA (Protino Ni-IDA Resin, Macherey-Nagel, Duren, Germany) columns and were washed with at least 10 column volumes of cold wash buffer [50 mM tris (pH 7.5), 150 mM NaCl, and 2 mM β-mercaptoethanol] before elution with 250 mM imidazole. The Ni elution was collected directly on a preequilibrated amylose column (amylose high flow resin, New England Biolabs, Ipswich, MA). Amylose column was washed with 5 column volumes of cold wash buffer before fractionated elution in a buffer containing 25 mM Hepes (pH 7.5), 150 mM NaCl, 1 mM TCEP, 10% glycerol, 5 mM maltose, and cOmplete EDTA-free protease inhibitor cocktail. The concentration of proteins was determined by their ultraviolet absorption at 280 nm before aliquots were snap-frozen in liquid nitrogen and stored at −80°C.
(§2) For saturating streptavidin resin with biotinylated peptides or biotin, 50 μl of streptavidin resin was mixed with biotin or peptide at 40 to 60 μM concentration in 6 to 6.5 resin volume for 60 min. To saturate streptavidin resin with biotinylated proteins, 50 μl of streptavidin resin (Streptavidin Sepharose High Performance, Cytiva) was mixed with biotinylated MBP or MBP-PDZ at 40 to 50 μM concentration in 20× resin volume for 60 min. After saturation, resins were washed a single time [10 resin volume, holdup buffer: 50 mM tris (pH 7.5), 300 mM NaCl, and 1 mM TCEP, 0.22-μm filtered] and were depleted with biotin (10 resin volume, 10 min, holdup buffer supplemented with 100 μM biotin). Last, resins were washed two times (10 resin volume, holdup buffer).
(§3) For single-point nHU experiments carried out at ~10 μM bait concentration, 50 μl of saturated streptavidin resin was mixed with 200 μl of cell lysate (2 mg/ml). Titration experiments were carried out by mixing control and bait-saturated resin and keeping the total resin volume constant; e.g., ~5 μM bait concentration can be achieved by mixing 25 μl of bait-saturated streptavidin resin with 25 μl of control resin and 200 μl of cell lysate (2 mg/ml). Control and bait-saturated resins were prepared in larger amounts, and a serial dilution was prepared with these presaturated resins to achieve different resin ratios.
Unless specified elswhere, the nHU mixture was incubated at 4°C for 2 hours. After the incubation ended, the resin was separated from the supernatant by a brief centrifugation (15 s, 2000 g). Then, half of the supernatant was removed by pipetting without any delay to avoid any resin contamination; e.g., 100 μl of supernatant is collected if 200 μl of cell lysate was used as analyte. Alternatively, the supernatant can be centrifuged an additional time to clarify it further, removing any possible resin contamination. […]

Experiment [2] deals with SNX27_PDZ. The experiment in a line: nHU-MS, SNX27_PDZ bait, total Jurkat extracts, series 1. The conditions noted are these: nHU-MS, total Jurkat extract. How it is done:
as §1, §2, §3
Unless specified elswhere, the nHU mixture was incubated at 4°C for 2 hours. After the incubation ended, the resin was separated from the supernatant by a brief centrifugation (15 s, 2000 g). Then, half of the supernatant was removed by pipetting without any delay to avoid any resin contamination; e.g., 100 μl of supernatant is collected if 200 μl of cell lysate was used as analyte. Alternatively, the supernatant can be centrifuged an additional time to clarify it further, removing any possible resin contamination. In principle, the separation of the supernatant should be as fast as possible since any delay can perturb the equilibrium. […] Alternatively, the resin can be separated from the supernatant using filter plates (e.g., various products of Millipore, Burlington, MA) or spin columns (e.g., Pierce spin cups—cellulose acetate filter from Thermo Fisher Scientific, Waltham, MA) to achieve faster separation. […]

In experiment [3] the test system is SNX27_PDZ. The experiment in a line: AP-MS control pull-down on leftover resin, SNX27_PDZ bait, total Jurkat extracts. Particulars: AP-MS control pull-down, total Jurkat extract. Here is the method:
Leftover beads from nHU-MS experiments were washed three times immediately after the separation of the supernatant [10 resin volume in buffer containing 50 mM tris (pH 8.5), 150 mM NaCl, 1% Triton X-100, 10× cOmplete EDTA-free protease inhibitor cocktail, 2 mM EDTA, and 1 mM TCEP]. Then, the beads were washed two times [10 resin volume buffer containing 50 mM tris (pH 8.5), 150 mM NaCl, and 1 mM TCEP]. Last, captured protein was eluted from the resin in two steps, and the eluted fractions were pooled. For each elution, the beads were incubated for 30 min with three resin volume buffer containing 20 mM tris (pH 8.5), 100 mM NaCl, 500 μM TCEP, and 8 M urea. Between each step, the beads were separated by mild centrifugation, and the supernatant was removed by gentle pipetting.
The nHU samples were precipitated with trichloroacetic acid (TCA) 20% overnight at 4°C and centrifuged at 14,000 rpm for 10 min at 4°C. The protein pellets were washed twice with 1 ml of cold acetone and air-dried. The protein extracts were solubilized in 8 M urea, reduced with 5 mM TCEP for 30 min, and alkylated with 10 mM iodoacetamide for 30 min in the dark. Double digestion was performed at 37°C with 500 ng of endoproteinase Lys-C (Wako, Richmond, USA) for 4 hours, followed by fourfold dilution and an overnight digestion with 500 ng of trypsin (Promega, Charbonnieres les Bains, France). Peptide mixtures were then desalted on a C18 spin-column and dried on a speed vacuum.
Samples were analyzed using an Ultimate 3000 nano-RSLC coupled in line via a nano-electrospray ionization source, with an LTQ-Orbitrap ELITE mass spectrometer (Thermo Fisher Scientific, San Jose, CA) or with the Orbitrap Exploris 480 mass spectrometer (Thermo Fisher Scientific, Bremen, Germany) equipped with a high field asymmetric ion mobility spectrometry (FAIMS) module. Peptide mixtures were injected in 0.1% trifluoroacetic acid on a C18 Acclaim PepMap100 trap column [75 μm inner diameter (ID) × 2 cm, 3 μm, 100 Å, Thermo Fisher Scientific] for 3 min at 5 μl/min with 2% acetonitrile (ACN) and 0.1% formic acid (FA) in H2O and then separated on a C18 Acclaim PepMap100 nano-column (75 μm ID × 50 cm, 2.6 μm, 150 Å, Thermo Fisher Scientific) at 300 nl/min and 40°C with a 90-min linear gradient from 5 to 30% buffer B (A: 0.1% FA in H2O/B: 80% ACN, 0.1% FA in H2O) and regeneration at 5% B. Spray voltage was set to 2.1 kV and heated capillary temperature was set to 280°C.
For the Orbitrap Elite, the mass spectrometer was operated in positive ionization mode in data-dependent mode with survey scans from mass/charge ratio (m/z) 350 to 1500 acquired in the Orbitrap at a resolution of 120,000 at m/z 400. The 20 most intense peaks from survey scans were selected for further fragmentation in the linear ion trap with an isolation window of 2.0 Da and were fragmented by collision-induced dissociation (CID) with a normalized collision energy of 35% (TOP 20 CID method). Unassigned and single-charged states were excluded from fragmentation. The ion target value for the survey scans (in the Orbitrap) and the MS2 mode (in the linear ion trap) were set to 1E6 and 5E3, respectively, and the maximum injection time was set to 100 ms for both scan modes. Dynamic exclusion was set to 20 s after one repeat count with mass width at ±10 parts per million (ppm).
Proteins were identified by database search using SequestHT (Thermo Fisher Scientific) with Proteome Discoverer 2.4 software (PD2.4, Thermo Fisher Scientific) on the human FASTA database downloaded from UniProt (reviewed, release 2021_06_03, 20380 entries, https://uniprot.org/, complemented with sequences of likely contaminants, such as MBP, streptavidin, or trypsin). Precursor and fragment mass tolerances were set at 7 ppm and 0.6 Da, respectively, and up to two missed cleavages were allowed. […]

This is an account of results in publication PMC9770967, “Native holdup (nHU) to measure binding affinities from cell extracts” (Science Advances, 2022).

B1: SNX2: component of the SNX-BAR complex (protein, UniProt O60749 1-519, looked up)
Sorting nexin-2: MAAEREPPPLGDGKPTDFEDLEDGEDLFTSTVSTLESSPSSPEPASLPAEDISANSNGPKPTEVVLDDDREDLFAEATEEVSLDSPEREPILSSEPSPAVTPVTPTTLIAPRIESKSMSAPVIFDRSREEIEEEANGDIFDIEIGVSDPEKVGDGMNAYMAYRVTTKTSLSMFSKSEFSVKRRFSDFLGLHSKLASKYLHVGYIVPPAPEKSIVGMTKVKVGKEDSSSTEFVEKRRAALERYLQRTVKHPTLLQDPDLRQFLESSELPRAVNTQALSGAGILRMVNKAADAVNKMTIKMNESDAWFEEKQQQFENLDQQLRKLHVSVEALVCHRKELSANTAAFAKSAAMLGNSEDHTALSRALSQLAEVEEKIDQLHQEQAFADFYMFSELLSDYIRLIAAVKGVFDHRMKCWQKWEDAQITLLKKREAEAKMMVANKPDKIQQAKNEIREWEAKVQQGERDFEQISKTIRKEVGRFEKERVKDFKTVIIKYLESLVQTQQQLIKYWEAFLPEAKAIA
Consider B1, for which the pKapp in experiment [1] is 5.04.

B2: SNX5: component of the SNX-BAR complex (protein, UniProt Q9Y5X3 2-404, looked up)
Sorting nexin-5: AAVPELLQQQEEDRSKLRSVSVDLNVDPSLQIDIPDALSERDKVKFTVHTKTTLPTFQSPEFSVTRQHEDFVWLHDTLIETTDYAGLIIPPAPTKPDFDGPREKMQKLGEGEGSMTKEEFAKMKQELEAEYLAVFKKTVSSHEVFLQRLSSHPVLSKDRNFHVFLEYDQDLSVRRKNTKEMFGGFFKSVVKSADEVLFTGVKEVDDFFEQEKNFLINYYNRIKDSCVKADKMTRSHKNVADDYIHTAACLHSLALEEPTVIKKYLLKVAELFEKLRKVEGRVSSDEDLKLTELLRYYMLNIEAAKDLLYRRTKALIDYENSNKALDKARLKSKDVKLAEAHQQECCQKFEQLSESAKEELINFKRKRVAAFRKNLIEMSELEIKHARNNVSLLQSCIDLFKNN
Regarding B2, the pKapp in experiment [1] turned out to be 5.23.

B3: ZC3HAV1 (protein, UniProt Q7Z2W4 2-902, looked up)
Zinc finger CCCH-type …: ADPEVCCFITKILCAHGGRMALDALLQEIALSEPQLCEVLQVAGPDRFVVLETGGEAGITRSVVATTRARVCRRKYCQRPCDNLHLCKLNLLGRCNYSQSERNLCKYSHEVLSEENFKVLKNHELSGLNKEELAVLLLQSDPFFMPEICKSYKGEGRQQICNQQPPCSRLHICDHFTRGNCRFPNCLRSHNLMDRKVLAIMREHGLNPDVVQNIQDICNSKHMQKNPPGPRAPSSHRRNMAYRARSKSRDRFFQGSQEFLASASASAERSCTPSPDQISHRASLEDAPVDDLTRKFTYLGSQDRARPPSGSSKATDLGGTSQAGTSQRFLENGSQEDLLHGNPGSTYLASNSTSAPNWKSLTSWTNDQGARRKTVFSPTLPAARSSLGSLQTPEAVTTRKGTGLLSSDYRIINGKSGTQDIQPGPLFNNNADGVATDITSTRSLNYKSTSSGHREISSPRIQDAGPASRDVQATGRIADDADPRVALVNDSLSDVTSTTSSRVDDHDSEEICLDHLCKGCPLNGSCSKVHFHLPYRWQMLIGKTWTDFEHMETIEKGYCNPGIHLCSVGSYTINFRVMSCDSFPIRRLSTPSSVTKPANSVFTTKWIWYWKNESGTWIQYGEEKDKRKNSNVDSSYLESLYQSCPRGVVPFQAGSRNYELSFQGMIQTNIASKTQKDVIRRPTFVPQWYVQQMKRGPDHQPAKTSSVSLTATFRPQEDFCFLSSKKYKLSEIHHLHPEYVRVSEHFKASMKNFKIEKIKKIENSELLDKFTWKKSQMKEEGKLLFYATSRAYVESICSNNFDSFLHETHENKYGKGIYFAKDAIYSHKNCPYDAKNVVMFVAQVLVGKFTEGNITYTSPPPQFDSCVDTRSNPSVFVIFQKDQVYPQYVIEYTEDKACVIS
For B3, in experiment [2] (SNX27/MBP, sheet "SNX27&Jurkat"), the Ratio_HU was determined as 0.6368. Moreover, in experiment [2] (SNX27 bait vs MBP control, sheet "SNX27&Jurkat"), the BI_HU came to 0.3632. In experiment [2] (SNX27 bait, not filtered for significance), this molecule yielded a pKapp_HU_not_filtered of 4.758. Also, the FC_HU in experiment [2] (SNX27 vs MBP control, sheet "SNX27&Jurkat") is given as -0.651. This molecule also registered a Ratio_AP in experiment [3] (SNX27/MBP) of 128.984. This molecule yielded an FC_AP in experiment [3] (SNX27 vs MBP) of 7.011. Also, the BINDER_AP result in experiment [3] (BINDS / DOES NOT BIND) was “BINDS”.

B4: SNX6: component of the SNX-BAR complex (protein, UniProt Q9UNH7 1-406, looked up)
Sorting nexin-6: MMEGLDDGPDFLSEEDRGLKAINVDLQSDAALQVDISDALSERDKVKFTVHTKSSLPNFKQNEFSVVRQHEEFIWLHDSFVENEDYAGYIIPPAPPRPDFDASREKLQKLGEGEGSMTKEEFTKMKQELEAEYLAIFKKTVAMHEVFLCRVAAHPILRRDLNFHVFLEYNQDLSVRGKNKKEKLEDFFKNMVKSADGVIVSGVKDVDDFFEHERTFLLEYHNRVKDASAKSDRMTRSHKSAADDYNRIGSSLYALGTQDSTDICKFFLKVSELFDKTRKIEARVSADEDLKLSDLLKYYLRESQAAKDLLYRRSRSLVDYENANKALDKARAKNKDVLQAETSQQLCCQKFEKISESAKQELIDFKTRRVAAFRKNLVELAELELKHAKGNLQLLQNCLAVLNGDT
As to B4, the pKapp in experiment [1] is reported as 5.47.
